The record followed here is article PMC9214875.

The nature of series [1]: nuclear/cytoplasmic fractionation, Western blot, LO2 and MHCC97H. As to conditions: glycan lost; control: wild type.
A short description of series [2]: Blue Native PAGE, MHCC97H and HCCLM3. The settings on record: glycan lost; control: wild type.
The nature of series [3]: cycloheximide chase, Western blot, MHCC97H. The settings on record: glycan lost; control: wild type (G-MerTK).
Series [4] can be described thus: Blue Native PAGE, endogenous MerTK, MHCC97H. The settings on record: glycan lost; control: untreated / with glucose.
The nature of series [5]: MerTK IP, anti-ubiquitin blot, MHCC97H and HCCLM3. The settings on record: glycan lost; control: untreated.
Series [6] can be described thus: nuclear/cytoplasmic fractionation, Western blot, MHCC97H. The settings on record: glycan lost; control: untreated.
Series [7] is described as follows: MG132 rescue of MerTK level, Western blot. The settings on record: glycan lost; control: no TM.

B1: MerTK: N294Q (protein)
parent chain: MGPAPLPLLLGLFLPALWRRAITEAREEAKPYPLFPGPFPGSLQTDHTPLLSLPHASGYQPALMFSPTQPGRPHTGNVAIPQVTSVESKPLPPLAFKHTVGHIILSEHKGVKFNCSISVPNIYQDTTISWWKDGKELLGAHHAITQFYPDDEVTAIIASFSITSVQRSDNGSYICKMKINNEEIVSDPIYIEVQGLPHFTKQPESMNVTRNTAFNLTCQAVGPPEPVNIFWVQNSSRVNEQPEKSPSVLTVPGLTEMAVFSCEAHNDKGLTVSKGVQINIKAIPSPPTEVSIRNSTAHSILISWVPGFDGYSPFRNCSIQVKEADPLSNGSVMIFNTSALPHLYQIKQLQALANYSIGVSCMNEIGWSAVSPWILASTTEGAPSVAPLNVTVFLNESSDNVDIRWMKPPTKQQDGELVGYRISHVWQSAGISKELLEEVGQNGSRARISVQVHNATCTVRIAAVTRGGVGPFSDPVKIFIPAHGWVDYAPSSTPAPGNADPVLIIFGCFCGFILIGLILYISLAIRKRVQETKFGNAFTEEDSELVVNYIAKKSFCRRAIELTLHSLGVSEELQNKLEDVVIDRNLLILGKILGEGEFGSVMEGNLKQEDGTSLKVAVKTMKLDNSSQREIEEFLSEAACMKDFSHPNVIRLLGVCIEMSSQGIPKPMVILPFMKYGDLHTYLLYSRLETGPKHIPLQTLLKFMVDIALGMEYLSNRNFLHRDLAARNCMLRDDMTVCVADFGLSKKIYSGDYYRQGRIAKMPVKWIAIESLADRVYTSKSDVWAFGVTMWEIATRGMTPYPGVQNHEMYDYLLHGHRLKQPEDCLDELYEIMYSCWRTDPLDRPTFSVLRLQLEKLLESLPDVRNQADVIYVNTQLLESSEGLAQGSTLAPLDLNIDPDSIIASCTPRAAISVVTAEVHDSKPHEGRYILNGGSEEWEDLTSAPSAAVTAEKNSVLPGERLVRNGVSWSHSSMLPLGSSLPDELLFADDSSEGSEVLM
B1: in series [1], the localisation_or_trafficking entry was “increases”. Besides, in series [2], the oligomerisation entry was “decreases”. For the same protein, the degradation_or_half_life result in series [3] is reported as “decreases”.

B2: MerTK: N454Q (protein)
parent chain: MGPAPLPLLLGLFLPALWRRAITEAREEAKPYPLFPGPFPGSLQTDHTPLLSLPHASGYQPALMFSPTQPGRPHTGNVAIPQVTSVESKPLPPLAFKHTVGHIILSEHKGVKFNCSISVPNIYQDTTISWWKDGKELLGAHHAITQFYPDDEVTAIIASFSITSVQRSDNGSYICKMKINNEEIVSDPIYIEVQGLPHFTKQPESMNVTRNTAFNLTCQAVGPPEPVNIFWVQNSSRVNEQPEKSPSVLTVPGLTEMAVFSCEAHNDKGLTVSKGVQINIKAIPSPPTEVSIRNSTAHSILISWVPGFDGYSPFRNCSIQVKEADPLSNGSVMIFNTSALPHLYQIKQLQALANYSIGVSCMNEIGWSAVSPWILASTTEGAPSVAPLNVTVFLNESSDNVDIRWMKPPTKQQDGELVGYRISHVWQSAGISKELLEEVGQNGSRARISVQVHNATCTVRIAAVTRGGVGPFSDPVKIFIPAHGWVDYAPSSTPAPGNADPVLIIFGCFCGFILIGLILYISLAIRKRVQETKFGNAFTEEDSELVVNYIAKKSFCRRAIELTLHSLGVSEELQNKLEDVVIDRNLLILGKILGEGEFGSVMEGNLKQEDGTSLKVAVKTMKLDNSSQREIEEFLSEAACMKDFSHPNVIRLLGVCIEMSSQGIPKPMVILPFMKYGDLHTYLLYSRLETGPKHIPLQTLLKFMVDIALGMEYLSNRNFLHRDLAARNCMLRDDMTVCVADFGLSKKIYSGDYYRQGRIAKMPVKWIAIESLADRVYTSKSDVWAFGVTMWEIATRGMTPYPGVQNHEMYDYLLHGHRLKQPEDCLDELYEIMYSCWRTDPLDRPTFSVLRLQLEKLLESLPDVRNQADVIYVNTQLLESSEGLAQGSTLAPLDLNIDPDSIIASCTPRAAISVVTAEVHDSKPHEGRYILNGGSEEWEDLTSAPSAAVTAEKNSVLPGERLVRNGVSWSHSSMLPLGSSLPDELLFADDSSEGSEVLM
For B2, the localisation_or_trafficking result in series [1] was “increases”. For the same protein, the oligomerisation entry in series [2] is on record as “decreases”. In addition, in series [3], the degradation_or_half_life entry is on record as “decreases”.

B3: MerTK: glucose deprivation (protein)
parent chain: MGPAPLPLLLGLFLPALWRRAITEAREEAKPYPLFPGPFPGSLQTDHTPLLSLPHASGYQPALMFSPTQPGRPHTGNVAIPQVTSVESKPLPPLAFKHTVGHIILSEHKGVKFNCSISVPNIYQDTTISWWKDGKELLGAHHAITQFYPDDEVTAIIASFSITSVQRSDNGSYICKMKINNEEIVSDPIYIEVQGLPHFTKQPESMNVTRNTAFNLTCQAVGPPEPVNIFWVQNSSRVNEQPEKSPSVLTVPGLTEMAVFSCEAHNDKGLTVSKGVQINIKAIPSPPTEVSIRNSTAHSILISWVPGFDGYSPFRNCSIQVKEADPLSNGSVMIFNTSALPHLYQIKQLQALANYSIGVSCMNEIGWSAVSPWILASTTEGAPSVAPLNVTVFLNESSDNVDIRWMKPPTKQQDGELVGYRISHVWQSAGISKELLEEVGQNGSRARISVQVHNATCTVRIAAVTRGGVGPFSDPVKIFIPAHGWVDYAPSSTPAPGNADPVLIIFGCFCGFILIGLILYISLAIRKRVQETKFGNAFTEEDSELVVNYIAKKSFCRRAIELTLHSLGVSEELQNKLEDVVIDRNLLILGKILGEGEFGSVMEGNLKQEDGTSLKVAVKTMKLDNSSQREIEEFLSEAACMKDFSHPNVIRLLGVCIEMSSQGIPKPMVILPFMKYGDLHTYLLYSRLETGPKHIPLQTLLKFMVDIALGMEYLSNRNFLHRDLAARNCMLRDDMTVCVADFGLSKKIYSGDYYRQGRIAKMPVKWIAIESLADRVYTSKSDVWAFGVTMWEIATRGMTPYPGVQNHEMYDYLLHGHRLKQPEDCLDELYEIMYSCWRTDPLDRPTFSVLRLQLEKLLESLPDVRNQADVIYVNTQLLESSEGLAQGSTLAPLDLNIDPDSIIASCTPRAAISVVTAEVHDSKPHEGRYILNGGSEEWEDLTSAPSAAVTAEKNSVLPGERLVRNGVSWSHSSMLPLGSSLPDELLFADDSSEGSEVLM
With B3, in series [4], the oligomerisation entry is reported as “abolishes”.

B4: MerTK: TM (protein)
parent chain: MGPAPLPLLLGLFLPALWRRAITEAREEAKPYPLFPGPFPGSLQTDHTPLLSLPHASGYQPALMFSPTQPGRPHTGNVAIPQVTSVESKPLPPLAFKHTVGHIILSEHKGVKFNCSISVPNIYQDTTISWWKDGKELLGAHHAITQFYPDDEVTAIIASFSITSVQRSDNGSYICKMKINNEEIVSDPIYIEVQGLPHFTKQPESMNVTRNTAFNLTCQAVGPPEPVNIFWVQNSSRVNEQPEKSPSVLTVPGLTEMAVFSCEAHNDKGLTVSKGVQINIKAIPSPPTEVSIRNSTAHSILISWVPGFDGYSPFRNCSIQVKEADPLSNGSVMIFNTSALPHLYQIKQLQALANYSIGVSCMNEIGWSAVSPWILASTTEGAPSVAPLNVTVFLNESSDNVDIRWMKPPTKQQDGELVGYRISHVWQSAGISKELLEEVGQNGSRARISVQVHNATCTVRIAAVTRGGVGPFSDPVKIFIPAHGWVDYAPSSTPAPGNADPVLIIFGCFCGFILIGLILYISLAIRKRVQETKFGNAFTEEDSELVVNYIAKKSFCRRAIELTLHSLGVSEELQNKLEDVVIDRNLLILGKILGEGEFGSVMEGNLKQEDGTSLKVAVKTMKLDNSSQREIEEFLSEAACMKDFSHPNVIRLLGVCIEMSSQGIPKPMVILPFMKYGDLHTYLLYSRLETGPKHIPLQTLLKFMVDIALGMEYLSNRNFLHRDLAARNCMLRDDMTVCVADFGLSKKIYSGDYYRQGRIAKMPVKWIAIESLADRVYTSKSDVWAFGVTMWEIATRGMTPYPGVQNHEMYDYLLHGHRLKQPEDCLDELYEIMYSCWRTDPLDRPTFSVLRLQLEKLLESLPDVRNQADVIYVNTQLLESSEGLAQGSTLAPLDLNIDPDSIIASCTPRAAISVVTAEVHDSKPHEGRYILNGGSEEWEDLTSAPSAAVTAEKNSVLPGERLVRNGVSWSHSSMLPLGSSLPDELLFADDSSEGSEVLM
Regarding B4, the “other: ubiquitination” value in series [5] was “increases”. The localisation_or_trafficking entry in series [6] was “increases”. Besides, the degradation_or_half_life entry in series [7] is reported as “decreases”. Also, in series [4], the oligomerisation entry is listed as “abolishes”.
